# Results taken from PMC9482650, “Quantitative fragmentomics allow affinity mapping of interactomes” (Nature Communications, 2022).
# T1: APBA2_1, Q99767
# T1 sequence (Q99767 563-664, limits assumed, looked up): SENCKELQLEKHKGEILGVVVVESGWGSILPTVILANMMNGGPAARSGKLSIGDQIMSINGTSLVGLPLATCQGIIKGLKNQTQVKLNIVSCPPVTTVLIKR
# T2: APBA3_1, O96018
# T2 sequence (O96018 389-490, limits assumed, looked up): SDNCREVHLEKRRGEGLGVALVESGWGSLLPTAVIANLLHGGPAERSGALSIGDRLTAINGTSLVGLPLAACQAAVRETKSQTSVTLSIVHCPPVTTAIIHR
# T3: ARHGEF11, O15085
# T3 sequence (O15085 42-136, limits assumed, looked up): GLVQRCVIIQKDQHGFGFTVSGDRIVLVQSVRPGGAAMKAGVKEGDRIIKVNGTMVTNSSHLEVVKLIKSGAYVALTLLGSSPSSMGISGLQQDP
# T4: CARD11, Q9BXL7
# T4 sequence (Q9BXL7 662-765, limits assumed, looked up): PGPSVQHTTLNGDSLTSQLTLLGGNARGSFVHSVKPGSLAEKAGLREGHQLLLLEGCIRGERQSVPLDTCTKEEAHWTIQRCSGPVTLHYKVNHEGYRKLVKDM
# T5: DVL3, Q92997
# T5 sequence (Q92997 244-331, limits assumed, looked up): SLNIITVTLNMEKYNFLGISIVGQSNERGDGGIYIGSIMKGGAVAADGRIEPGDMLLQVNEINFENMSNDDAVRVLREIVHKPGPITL
# T6: FRMPD1, Q5SYB0
# T6 sequence (Q5SYB0 52-145, limits assumed, looked up): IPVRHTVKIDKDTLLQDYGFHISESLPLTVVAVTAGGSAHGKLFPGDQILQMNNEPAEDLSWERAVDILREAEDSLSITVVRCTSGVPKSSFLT
# T7: GRIP1_2, Q9Y3R0
# T7 sequence (Q9Y3R0 145-248, limits assumed, looked up): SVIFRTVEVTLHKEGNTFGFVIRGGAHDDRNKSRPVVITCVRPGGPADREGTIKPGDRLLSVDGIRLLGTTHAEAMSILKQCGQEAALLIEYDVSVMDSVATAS
# T8: MPP6, Q9NZW5
# T8 sequence (Q9NZW5 125-219, limits assumed, looked up): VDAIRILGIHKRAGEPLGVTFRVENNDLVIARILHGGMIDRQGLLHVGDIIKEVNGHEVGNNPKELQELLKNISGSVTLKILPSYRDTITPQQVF
# T9: NHERF3_1, Q5T2W1
# T9 sequence (Q5T2W1 4-100, limits assumed, looked up): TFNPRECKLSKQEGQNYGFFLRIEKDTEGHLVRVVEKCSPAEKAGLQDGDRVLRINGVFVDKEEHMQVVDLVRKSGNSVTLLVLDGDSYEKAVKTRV
# T10: PCLO, Q9Y6V0
# T10 sequence (Q9Y6V0 4491-4600, limits assumed, looked up): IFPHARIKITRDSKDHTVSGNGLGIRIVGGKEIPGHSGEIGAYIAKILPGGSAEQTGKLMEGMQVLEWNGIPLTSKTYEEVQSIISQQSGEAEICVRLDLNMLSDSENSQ
# T11: SNTA1, Q13424
# T11 sequence (Q13424 82-180, limits assumed, looked up): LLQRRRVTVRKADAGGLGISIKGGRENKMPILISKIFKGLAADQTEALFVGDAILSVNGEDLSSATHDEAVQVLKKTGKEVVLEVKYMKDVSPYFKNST
# T12: TIAM2, Q8IVF5
# T12 sequence (Q8IVF5 885-986, limits assumed, looked up): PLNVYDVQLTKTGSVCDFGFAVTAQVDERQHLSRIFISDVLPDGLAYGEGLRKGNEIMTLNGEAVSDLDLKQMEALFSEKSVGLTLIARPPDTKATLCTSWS
# T13: TJP3_3, O95049
# T13 sequence (O95049 375-456, limits assumed, looked up): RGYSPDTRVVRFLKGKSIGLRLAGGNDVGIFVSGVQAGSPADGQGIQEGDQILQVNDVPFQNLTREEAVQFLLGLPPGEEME
# Target: T1, APBA2_1, Q99767
# Assay: holdup assay
# Parameters: key: below the threshold = too weak to quantify, mostly under pKd 3.1 to 4
# Conditions: plain residues with an end cap or a label only (N-terminal biotin on a linker: ado-ado)
row,Binder,pKd
1,"RRLQGTSSMV [GOLT1A, Q6ZVE7]",below the threshold
2,"TGPWKNETTV [ADGRA1, Q86SQ6]",below the threshold

# Target: T2, APBA3_1, O96018
# Assay: holdup assay
# Parameters: key: below the threshold = too weak to quantify, mostly under pKd 3.1 to 4
# Conditions: plain residues with an end cap or a label only (N-terminal biotin on a linker: ado-ado)
row,Binder,pKd
1,"RRLQGTSSMV [GOLT1A, Q6ZVE7]",below the threshold
2,"TGPWKNETTV [ADGRA1, Q86SQ6]",below the threshold

# Target: T3, ARHGEF11, O15085
# Assay: holdup assay
# Parameters: key: below the threshold = too weak to quantify, mostly under pKd 3.1 to 4
# Conditions: plain residues with an end cap or a label only (N-terminal biotin on a linker: ado-ado)
row,Binder,pKd
1,"RRLQGTSSMV [GOLT1A, Q6ZVE7]",below the threshold
2,"TGPWKNETTV [ADGRA1, Q86SQ6]",4.09

# Target: ARHGEF12, Q9NZN5-2
# Assay: holdup assay
# Parameters: key: below the threshold = too weak to quantify, mostly under pKd 3.1 to 4
# Conditions: plain residues with an end cap or a label only (N-terminal biotin on a linker: ado-ado)
# Sequence of ARHGEF12, Q9NZN5-2 (Q9NZN5 other isoform, or with tags, fused parts or gaps): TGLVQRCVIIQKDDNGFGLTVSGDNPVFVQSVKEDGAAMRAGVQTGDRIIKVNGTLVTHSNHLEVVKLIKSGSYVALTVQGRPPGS
row,Binder,pKd
1,"RRLQGTSSMV [GOLT1A, Q6ZVE7]",3.81
2,"TGPWKNETTV [ADGRA1, Q86SQ6]",4.05

# Target: T4, CARD11, Q9BXL7
# Assay: holdup assay
# Parameters: key: below the threshold = too weak to quantify, mostly under pKd 3.1 to 4
# Conditions: plain residues with an end cap or a label only (N-terminal biotin on a linker: ado-ado)
row,Binder,pKd
1,"RRLQGTSSMV [GOLT1A, Q6ZVE7]",below the threshold
2,"TGPWKNETTV [ADGRA1, Q86SQ6]",below the threshold

# Target: CASK, O14936
# Assay: holdup assay
# Parameters: key: below the threshold = too weak to quantify, mostly under pKd 3.1 to 4
# Conditions: plain residues with an end cap or a label only (N-terminal biotin on a linker: ado-ado)
# Sequence of CASK, O14936 (O14936 487-570): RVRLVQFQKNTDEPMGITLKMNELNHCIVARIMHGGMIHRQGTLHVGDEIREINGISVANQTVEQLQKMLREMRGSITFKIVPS
row,Binder,pKd
1,"RRLQGTSSMV [GOLT1A, Q6ZVE7]",below the threshold
2,"TGPWKNETTV [ADGRA1, Q86SQ6]",below the threshold

# Target: DLG5_1, Q8TDM6
# Assay: holdup assay
# Parameters: key: below the threshold = too weak to quantify, mostly under pKd 3.1 to 4
# Conditions: plain residues with an end cap or a label only (N-terminal biotin on a linker: ado-ado)
# Sequence of DLG5_1, Q8TDM6 (Q8TDM6 617-713): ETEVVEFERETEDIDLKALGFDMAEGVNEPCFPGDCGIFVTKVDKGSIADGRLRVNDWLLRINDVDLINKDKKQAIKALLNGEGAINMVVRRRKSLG
row,Binder,pKd
1,"RRLQGTSSMV [GOLT1A, Q6ZVE7]",below the threshold
2,"TGPWKNETTV [ADGRA1, Q86SQ6]",below the threshold

# Target: T5, DVL3, Q92997
# Assay: holdup assay
# Parameters: key: below the threshold = too weak to quantify, mostly under pKd 3.1 to 4
# Conditions: plain residues with an end cap or a label only (N-terminal biotin on a linker: ado-ado)
row,Binder,pKd
1,"RRLQGTSSMV [GOLT1A, Q6ZVE7]",below the threshold
2,"TGPWKNETTV [ADGRA1, Q86SQ6]",below the threshold

# Target: T6, FRMPD1, Q5SYB0
# Assay: holdup assay
# Parameters: key: below the threshold = too weak to quantify, mostly under pKd 3.1 to 4
# Conditions: plain residues with an end cap or a label only (N-terminal biotin on a linker: ado-ado)
row,Binder,pKd
1,"RRLQGTSSMV [GOLT1A, Q6ZVE7]",below the threshold
2,"TGPWKNETTV [ADGRA1, Q86SQ6]",below the threshold

# Target: T7, GRIP1_2, Q9Y3R0
# Assay: holdup assay
# Parameters: key: below the threshold = too weak to quantify, mostly under pKd 3.1 to 4
# Conditions: plain residues with an end cap or a label only (N-terminal biotin on a linker: ado-ado)
row,Binder,pKd
1,"RRLQGTSSMV [GOLT1A, Q6ZVE7]",below the threshold
2,"TGPWKNETTV [ADGRA1, Q86SQ6]",below the threshold

# Target: GRIP2_3, Q9C0E4
# Assay: holdup assay
# Parameters: key: below the threshold = too weak to quantify, mostly under pKd 3.1 to 4
# Conditions: plain residues with an end cap or a label only (N-terminal biotin on a linker: ado-ado)
# Sequence of GRIP2_3, Q9C0E4 (Q9C0E4 238-339): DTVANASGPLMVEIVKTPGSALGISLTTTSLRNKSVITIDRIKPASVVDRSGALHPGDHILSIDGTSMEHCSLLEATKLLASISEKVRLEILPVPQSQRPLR
row,Binder,pKd
1,"RRLQGTSSMV [GOLT1A, Q6ZVE7]",below the threshold
2,"TGPWKNETTV [ADGRA1, Q86SQ6]",below the threshold

# Target: GRIP2_6, Q9C0E4
# Assay: holdup assay
# Parameters: key: below the threshold = too weak to quantify, mostly under pKd 3.1 to 4
# Conditions: plain residues with an end cap or a label only (N-terminal biotin on a linker: ado-ado)
# Sequence of GRIP2_6, Q9C0E4 (Q9C0E4 648-740): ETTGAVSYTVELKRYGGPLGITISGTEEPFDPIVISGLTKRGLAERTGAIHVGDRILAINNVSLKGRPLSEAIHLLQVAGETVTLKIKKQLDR
row,Binder,pKd
1,"RRLQGTSSMV [GOLT1A, Q6ZVE7]",below the threshold
2,"TGPWKNETTV [ADGRA1, Q86SQ6]",below the threshold

# Target: HTRA2, O43464
# Assay: holdup assay
# Parameters: key: below the threshold = too weak to quantify, mostly under pKd 3.1 to 4
# Conditions: plain residues with an end cap or a label only (N-terminal biotin on a linker: ado-ado)
# Sequence of HTRA2, O43464 (O43464 355-458): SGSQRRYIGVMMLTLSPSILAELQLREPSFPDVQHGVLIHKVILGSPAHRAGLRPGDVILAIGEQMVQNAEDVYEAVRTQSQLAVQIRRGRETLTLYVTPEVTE
row,Binder,pKd
1,"RRLQGTSSMV [GOLT1A, Q6ZVE7]",below the threshold
2,"TGPWKNETTV [ADGRA1, Q86SQ6]",below the threshold

# Target: IL16_1, Q14005
# Assay: holdup assay
# Parameters: key: below the threshold = too weak to quantify, mostly under pKd 3.1 to 4
# Conditions: plain residues with an end cap or a label only (N-terminal biotin on a linker: ado-ado)
# Sequence of IL16_1, Q14005 (Q14005 210-306): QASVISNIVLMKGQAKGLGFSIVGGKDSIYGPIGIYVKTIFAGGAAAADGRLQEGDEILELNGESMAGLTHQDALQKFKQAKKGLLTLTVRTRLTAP
row,Binder,pKd
1,"RRLQGTSSMV [GOLT1A, Q6ZVE7]",4.13
2,"TGPWKNETTV [ADGRA1, Q86SQ6]",3.83

# Target: Inadl_6, Q8NI35
# Assay: holdup assay
# Parameters: key: below the threshold = too weak to quantify, mostly under pKd 3.1 to 4
# Conditions: plain residues with an end cap or a label only (N-terminal biotin on a linker: ado-ado)
# Sequence of Inadl_6, Q8NI35 (Q8NI35 1058-1167): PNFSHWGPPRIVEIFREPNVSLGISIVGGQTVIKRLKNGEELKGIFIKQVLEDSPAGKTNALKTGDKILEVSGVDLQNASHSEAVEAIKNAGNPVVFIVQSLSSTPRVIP
row,Binder,pKd
1,"RRLQGTSSMV [GOLT1A, Q6ZVE7]",below the threshold
2,"TGPWKNETTV [ADGRA1, Q86SQ6]",below the threshold

# Target: MAGI2_6, Q86UL8
# Assay: holdup assay
# Parameters: key: below the threshold = too weak to quantify, mostly under pKd 3.1 to 4
# Conditions: plain residues with an end cap or a label only (N-terminal biotin on a linker: ado-ado)
# Sequence of MAGI2_6, Q86UL8 (Q86UL8 1141-1229): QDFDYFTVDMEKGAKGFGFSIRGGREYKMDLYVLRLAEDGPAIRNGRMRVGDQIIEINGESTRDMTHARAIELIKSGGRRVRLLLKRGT
row,Binder,pKd
1,"RRLQGTSSMV [GOLT1A, Q6ZVE7]",3.68
2,"TGPWKNETTV [ADGRA1, Q86SQ6]",3.71

# Target: T8, MPP6, Q9NZW5
# Assay: holdup assay
# Parameters: key: below the threshold = too weak to quantify, mostly under pKd 3.1 to 4
# Conditions: plain residues with an end cap or a label only (N-terminal biotin on a linker: ado-ado)
row,Binder,pKd
1,"RRLQGTSSMV [GOLT1A, Q6ZVE7]",below the threshold
2,"TGPWKNETTV [ADGRA1, Q86SQ6]",below the threshold

# Target: T9, NHERF3_1, Q5T2W1
# Assay: holdup assay
# Parameters: key: below the threshold = too weak to quantify, mostly under pKd 3.1 to 4
# Conditions: plain residues with an end cap or a label only (N-terminal biotin on a linker: ado-ado)
row,Binder,pKd
1,"RRLQGTSSMV [GOLT1A, Q6ZVE7]",4.09
2,"TGPWKNETTV [ADGRA1, Q86SQ6]",below the threshold

# Target: NHERF4_2, Q86UT5
# Assay: holdup assay
# Parameters: key: below the threshold = too weak to quantify, mostly under pKd 3.1 to 4
# Conditions: plain residues with an end cap or a label only (N-terminal biotin on a linker: ado-ado)
# Sequence of NHERF4_2, Q86UT5 (Q86UT5 220-308): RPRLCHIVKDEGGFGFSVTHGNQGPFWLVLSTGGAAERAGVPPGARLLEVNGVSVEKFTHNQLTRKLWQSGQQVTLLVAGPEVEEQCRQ
row,Binder,pKd
1,"RRLQGTSSMV [GOLT1A, Q6ZVE7]",below the threshold
2,"TGPWKNETTV [ADGRA1, Q86SQ6]",below the threshold

# Target: NOS1, P29475
# Assay: holdup assay
# Parameters: key: below the threshold = too weak to quantify, mostly under pKd 3.1 to 4
# Conditions: plain residues with an end cap or a label only (N-terminal biotin on a linker: ado-ado)
# Sequence of NOS1, P29475 (P29475 9-101): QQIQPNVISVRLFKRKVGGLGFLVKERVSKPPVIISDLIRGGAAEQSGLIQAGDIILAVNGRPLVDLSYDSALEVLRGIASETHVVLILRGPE
row,Binder,pKd
1,"RRLQGTSSMV [GOLT1A, Q6ZVE7]",3.77
2,"TGPWKNETTV [ADGRA1, Q86SQ6]",below the threshold

# Target: T10, PCLO, Q9Y6V0
# Assay: holdup assay
# Parameters: key: below the threshold = too weak to quantify, mostly under pKd 3.1 to 4
# Conditions: plain residues with an end cap or a label only (N-terminal biotin on a linker: ado-ado)
row,Binder,pKd
1,"RRLQGTSSMV [GOLT1A, Q6ZVE7]",below the threshold
2,"TGPWKNETTV [ADGRA1, Q86SQ6]",below the threshold

# Target: PICK1, Q9NRD5
# Assay: holdup assay
# Parameters: key: below the threshold = too weak to quantify, mostly under pKd 3.1 to 4
# Conditions: plain residues with an end cap or a label only (N-terminal biotin on a linker: ado-ado)
# Sequence of PICK1, Q9NRD5 (Q9NRD5 17-115): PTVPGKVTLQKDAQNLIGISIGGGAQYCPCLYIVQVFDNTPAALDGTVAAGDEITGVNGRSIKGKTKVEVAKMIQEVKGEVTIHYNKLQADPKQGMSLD
row,Binder,pKd
1,"RRLQGTSSMV [GOLT1A, Q6ZVE7]",4.03
2,"TGPWKNETTV [ADGRA1, Q86SQ6]",below the threshold

# Target: T11, SNTA1, Q13424
# Assay: holdup assay
# Parameters: key: below the threshold = too weak to quantify, mostly under pKd 3.1 to 4
# Conditions: plain residues with an end cap or a label only (N-terminal biotin on a linker: ado-ado)
row,Binder,pKd
1,"RRLQGTSSMV [GOLT1A, Q6ZVE7]",below the threshold
2,"TGPWKNETTV [ADGRA1, Q86SQ6]",4.59

# Target: T12, TIAM2, Q8IVF5
# Assay: holdup assay
# Parameters: key: below the threshold = too weak to quantify, mostly under pKd 3.1 to 4
# Conditions: plain residues with an end cap or a label only (N-terminal biotin on a linker: ado-ado)
row,Binder,pKd
1,"RRLQGTSSMV [GOLT1A, Q6ZVE7]",4.03
2,"TGPWKNETTV [ADGRA1, Q86SQ6]",below the threshold

# Target: T13, TJP3_3, O95049
# Assay: holdup assay
# Parameters: key: below the threshold = too weak to quantify, mostly under pKd 3.1 to 4
# Conditions: plain residues with an end cap or a label only (N-terminal biotin on a linker: ado-ado)
row,Binder,pKd
1,"RRLQGTSSMV [GOLT1A, Q6ZVE7]",below the threshold
2,"TGPWKNETTV [ADGRA1, Q86SQ6]",below the threshold
